Test [1] deals with E-cadherin ECD (Mus musculus) (UniProt P09803). As to conditions: cited from earlier work.
For test [2] the target is unchanged. The settings on record: cited from earlier work. This is another data set of the same source.
For test [3], the target named is W2A E-cadherin/ATH monomer (E-cadherin extracellular domains EC1-EC5, W2A, N20C). As to the kind of experiment: FRET or BRET. (In general: Bioluminescence resonance energy transfer reports proximity on the nanometre scale.)
For test [4] the target is unchanged. The test can be described thus: single molecule AFM force measurement.
Test [5] has the same target. The test can be described thus: cross-linking.

Where two headings read alike, the source gives them in different places.

Broadly, the Kd is the equilibrium constant for the complex coming apart.

Turning to E-cadherin ECD (from UniProt P09803), the Kd in test [1] was 10 mM; in test [2] it was 720 µM.
Substance “W2A E-cadherin/ATH monomer (E-cadherin extracellular domains EC1-EC5, W2A, N20C) (domain or fragment)” came in with an FRET efficiency (peak) in test [3] of 0.74. In test [4], this substance showed a bond strength (unbinding force) of 17 pN. Moreover, the cross-linked dimer yield in test [5] stood at 20%.

These data come from PMC4113602.
